T1: recombinant human VEGF121 (human, UniProt P15692-9 27-147)
T1 construct: also called rhVEGF121
T1 sequence (looked up): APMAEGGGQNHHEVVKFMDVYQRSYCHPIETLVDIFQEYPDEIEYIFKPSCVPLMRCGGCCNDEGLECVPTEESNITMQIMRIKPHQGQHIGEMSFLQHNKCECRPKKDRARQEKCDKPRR

B1: DLLBII018 (VHH)
VHH: EVQLVESGGGLVQPGGSLRLSCAASGRTFSSYAMAWYRQAPGKEREYVAAIRWSGGTAYYADSVKGRFTISRDNAKNTVYLQMNSLRPEDTAVYYCANRAPDTRLAPYEYDHWGQGTLVTVSS
B2: VEGFBII022 (VHH, not shown: small tags and cut ends)
chain: EVQLVESGGGLVQTGDSLRLSCEVSGRTFSSYSMGWFRQAQGKEREFVVAISKGGYKYDSVSLEGRFTISKDNAKNTVYLQINSLKPEDTAVYYCASSRAYGSSRLRLADTYEYWGQGTQVTVSSGGGGSGGGSEVQLVESGGGLVQPGGSLRLSCVASGIRFMSMAWYRQAPGKHRELVARISSGGTTAYVDSVKGRFTISRDNSKNTVYLQMNSLKAEDTAVYYCNTFSSRPNPWGAGTQVTVSS
notes: Bivalent (heterodimeric) anti-VEGF VHH; also called VEGFBII23B04-9GS-5B05
B3: DLLBII101F01 (VHH)
VHH: EVQLVESGGGLVQAGGSLRLSCAASGRTFSNYAMGWFRQAPGKEREFVAAISWSGGDTYYADSVKGRFTISRDNAKNTVCLQMNSLKPEDTAVYYCAASFQSGAAPGANFYDYWGQGTQVTVSS
B4: recombinant human VEGF109 (ligand, UniProt P15692 207-315, looked up)
chain: APMAEGGGQNHHEVVKFMDVYQRSYCHPIETLVDIFQEYPDEIEYIFKPSCVPLMRCGGCCNDEGLECVPTEESNITMQIMRIKPHQGQHIGEMSFLQHNKCECRPKKD
notes: residue numbers count on GenBank AAM03108.1; also called rhVEGF109
B5: recombinant mouse VEGF164 (ligand, UniProt Q00731-2 27-190, looked up)
chain: APTTEGEQKSHEVIKFMDVYQRSYCRPIETLVDIFQEYPDEIEYIFKPSCVPLMRCAGCCNDEALECVPTSESNITMQIMRIKPHQSQHIGEMSFLQHSRCECRPKKDRTKPENHCEPCSERRKHLFVQDPQTCKCSCKNTDSRCKARQLELNERTCRCDKPRR
modifications: biotinylated as the labelled ligand of the mVEGF164/mVEGFR2 AlphaScreen
notes: also called mVEGF164; rmVEGF164

Key:
[1] = biological target: T2, human DLL4, full length, overexpressed on cells (human, UniProt Q9NR61 27-685); experiment: FMAT, hNotch1-Fc on CHO-hDLL4, +25 uM HSA
T2 construct: CHO cells in FMAT, HEK293 cells in the reporter assay; also called hDLL4; CHO-hDLL4

[2] = biological target: T3, mouse DLL4, full length, overexpressed on CHO cells (mouse, UniProt Q9JI71 27-686); experiment: FMAT, hNotch1-Fc on CHO-mDLL4, -HSA
T3 construct: whole, on cells; also called mDLL4; CHO-mDLL4
T3 sequence (Q9JI71 27-686): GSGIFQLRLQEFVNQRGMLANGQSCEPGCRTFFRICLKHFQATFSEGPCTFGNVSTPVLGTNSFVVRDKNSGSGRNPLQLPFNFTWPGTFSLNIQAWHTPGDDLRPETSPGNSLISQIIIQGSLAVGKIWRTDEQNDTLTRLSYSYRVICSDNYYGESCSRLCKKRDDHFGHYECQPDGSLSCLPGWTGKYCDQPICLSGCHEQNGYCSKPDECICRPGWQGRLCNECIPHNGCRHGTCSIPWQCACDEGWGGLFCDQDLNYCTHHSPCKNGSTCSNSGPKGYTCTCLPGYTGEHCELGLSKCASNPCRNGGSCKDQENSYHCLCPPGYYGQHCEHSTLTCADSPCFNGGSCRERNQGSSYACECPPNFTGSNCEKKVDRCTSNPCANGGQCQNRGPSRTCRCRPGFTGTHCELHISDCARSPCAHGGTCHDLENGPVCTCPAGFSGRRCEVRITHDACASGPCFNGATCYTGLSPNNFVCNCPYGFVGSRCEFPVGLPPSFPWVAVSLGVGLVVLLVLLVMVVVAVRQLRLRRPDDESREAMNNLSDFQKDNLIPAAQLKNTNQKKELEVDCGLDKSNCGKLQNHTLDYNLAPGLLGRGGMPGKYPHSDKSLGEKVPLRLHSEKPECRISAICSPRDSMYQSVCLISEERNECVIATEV

[3] = biological target: T2, human DLL4, full length, overexpressed …; experiment: FMAT, hNotch1-Fc on CHO-hDLL4, -HSA
[4] = biological target: T3, mouse DLL4, full length, overexpressed …; experiment: FMAT, hNotch1-Fc on CHO-mDLL4, +25 uM HSA
[5] = biological target: B5; experiment: AlphaScreen, mVEGF164/mVEGFR2-hFc competition
Procedure: (§1) Finally, streptavidin donor beads (20 μg/ml) are added and after 1 hour of incubation fluorescence is measured on the Envision microplate reader.

[6] = biological target: T4, recombinant human VEGF165 (human, UniProt P15692-4 27-191, biotinylated in the competition assays); experiment: binding ELISA, coated rhVEGF165
T4 construct: Bought protein; also called hVEGF165; rhVEGF165
Target sequence in this assay (P15692 other isoform, or with tags, fused parts or gaps): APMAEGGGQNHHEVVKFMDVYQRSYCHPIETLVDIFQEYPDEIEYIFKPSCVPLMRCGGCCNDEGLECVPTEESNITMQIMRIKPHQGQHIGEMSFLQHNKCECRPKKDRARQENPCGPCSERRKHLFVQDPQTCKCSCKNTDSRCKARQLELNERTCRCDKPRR

[7] = biological target: T5, VEGF (used to stimulate HUVEC cells) (UniProt P15692-4 27-191, limits assumed); experiment: cell-based or functional assay
T5 sequence (P15692 other isoform, or with tags, fused parts or gaps limits assumed): as the sequence (P15692 other isoform, or with tags, fused parts or gaps) above

[8] = biological target: T4, recombinant human VEGF165; experiment: ELISA, hVEGF165/hVEGFR1-Fc competition; parameters: % inhibition: concentration or dose not given beside the values
Target sequence in this assay (P15692 other isoform, or with tags, fused parts or gaps): as above

[9] = biological target: T4, recombinant human VEGF165; experiment: AlphaScreen, hVEGF165/hVEGFR2-Fc competition, +5 uM HSA
[10] = biological target: T5, VEGF (used to stimulate HUVEC cells); experiment: cell-based or functional assay; remark: listed apart in the source
[11] = biological target: T1, recombinant human VEGF121; experiment: binding ELISA, coated rhVEGF121
Procedure: Binding to recombinant human VEGF121 is assessed via a solid phase binding ELISA. […] Wells are blocked with a casein solution (1% in PBS).

[12] = biological target: T4, recombinant human VEGF165; experiment: AlphaScreen, hVEGF165/hVEGFR2-Fc competition
Procedure: (§2) Finally, streptavidin donor beads (20 μg/ml) are added and after 1 hour of incubation in the dark, fluorescence is measured on the Envision microplate reader.
Target sequence in this assay (P15692 other isoform, or with tags, fused parts or gaps): as above

[13] = biological target: B5; experiment: binding ELISA, coated rmVEGF164
Procedure: Cross-reactivity to mouse VEGF164 is determined using a binding ELISA. […] Wells are blocked with a casein solution (1% in PBS). […] A mouse VEGF164 reactive mAb is included as positive control.

[14] = biological target: T4, recombinant human VEGF165; experiment: ELISA, hVEGF165/hVEGFR2-Fc competition; parameters: % inhibition: concentration or dose not given beside the values
[15] = biological target: T4, recombinant human VEGF165; experiment: AlphaScreen, hVEGF165/hVEGFR2-Fc competition, -HSA
[16] = biological target: T4, recombinant human VEGF165; experiment: AlphaScreen, hVEGF165/hVEGFR1-Fc competition
Procedure: as §2
Target sequence in this assay (P15692 other isoform, or with tags, fused parts or gaps): as above

[17] = biological target: T4, recombinant human VEGF165; experiment: SPR Biacore, immobilised hVEGF165, two state reaction model
Target sequence in this assay (P15692 other isoform, or with tags, fused parts or gaps): as above

[18] = biological target: T4, recombinant human VEGF165; experiment: AlphaScreen, hVEGF165/hVEGFR1-Fc competition, -HSA
[19] = biological target: T4, recombinant human VEGF165; experiment: AlphaScreen, hVEGF165/hVEGFR2-Fc competition, -HSA; remark: listed apart in the source
[20] = biological target: T4, recombinant human VEGF165; experiment: AlphaScreen, hVEGF165/hVEGFR1-Fc competition; parameters: % inhibition: concentration or dose not given beside the values
Procedure: as §2
Target sequence in this assay (P15692 other isoform, or with tags, fused parts or gaps): as above

[21] = biological target: T4, recombinant human VEGF165; experiment: AlphaScreen, hVEGF165/hVEGFR2-Fc competition; parameters: % inhibition: concentration or dose not given beside the values
Procedure: as §2

[22] = biological target: T6, mouse DLL4 overexpressed on cells (mouse, UniProt Q9JI71 27-686); experiment: FMAT, labelled hNotch1-Fc on CHO-mDLL4, periplasmic extract
T6 construct: whole, on cells; also called CHO-mDLL4; CHO-mDII4
T6 sequence (Q9JI71 27-686): as the sequence (Q9JI71 27-686) above
From the text: (§3) All calculations are based on the FL1_total signal which comprises the average of the fluorescence per well times the number of counts per well.

recombinant human DLL4 = biological target: T7, recombinant human DLL4 (human, UniProt Q9NR61 25-522); experiment: Biacore off-rate, periplasmic extract; single VHH, not bracketed
T7 construct: also called rhDLL4; hDLL4

[23] = biological target: T8, human DLL4 overexpressed on cells (human, UniProt Q9NR61 27-685); experiment: FMAT, labelled hNotch1-Fc on CHO-hDLL4, periplasmic extract
T8 construct: full length human DLL4 on CHO or HEK293 cells; also called CHO-hDLL4; CHO-hDII4
From the text: as §3

human VEGFR2-Fc chimera = biological target: T9, human VEGFR2-Fc chimera (human, UniProt P35968 20-764); experiment: ELISA, coated VEGF109
T9 construct: also called hVEGFR2-Fc; VEGFR2-huFc; not shown: human Fc part of the bought chimera; not described
T9 sequence (P35968 20-764, change not shown): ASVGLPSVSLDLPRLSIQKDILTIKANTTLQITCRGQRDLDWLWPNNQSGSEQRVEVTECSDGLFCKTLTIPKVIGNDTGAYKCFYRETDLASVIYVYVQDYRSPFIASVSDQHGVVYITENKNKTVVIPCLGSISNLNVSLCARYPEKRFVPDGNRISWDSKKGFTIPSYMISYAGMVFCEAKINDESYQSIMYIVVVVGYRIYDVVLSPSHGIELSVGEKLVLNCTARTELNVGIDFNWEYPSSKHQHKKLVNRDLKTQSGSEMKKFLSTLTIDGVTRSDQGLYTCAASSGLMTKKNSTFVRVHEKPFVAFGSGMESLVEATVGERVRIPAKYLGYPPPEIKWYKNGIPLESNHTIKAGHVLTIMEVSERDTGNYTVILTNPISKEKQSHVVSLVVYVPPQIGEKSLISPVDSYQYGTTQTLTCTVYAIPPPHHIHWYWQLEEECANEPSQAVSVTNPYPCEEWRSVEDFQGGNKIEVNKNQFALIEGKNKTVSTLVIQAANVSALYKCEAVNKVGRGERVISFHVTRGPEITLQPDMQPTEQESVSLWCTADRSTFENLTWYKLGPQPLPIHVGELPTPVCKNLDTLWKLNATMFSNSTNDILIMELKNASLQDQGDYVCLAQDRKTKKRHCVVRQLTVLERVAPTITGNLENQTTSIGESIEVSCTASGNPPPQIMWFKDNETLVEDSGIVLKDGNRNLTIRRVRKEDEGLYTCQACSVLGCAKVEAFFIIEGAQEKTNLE
Procedure: Cells are harvested by centrifugation and lysed by sonication of the cell pellet. Inclusion bodies are isolated by centrifugation. […] The refolded protein is purified by ion exchange chromatography using a MonoQ5/50GL (Amersham BioSciences) column followed by gel filtration with a Superdex75 10/300 GL column (Amersheim BioSciences). […] To this end, 1 μg/mL of recombinant human VEGF109 is immobilized overnight at 4° C. in a 96-well MaxiSorp plate (Nunc, Wiesbaden, Germany). Wells are blocked with a casein solution (1%).

mouse VEGFR2-huFc = biological target: T10, mouse VEGFR2-huFc (mouse, UniProt P35918 20-762, limits assumed); experiment: AlphaScreen, unlabelled mVEGF164 against biotinylated mVEGF164 on mVEGFR2-hFc
T10 construct: also called mVEGFR2-hFc; mVEGFR2-Fc
T10 sequence (P35918 20-762 limits assumed): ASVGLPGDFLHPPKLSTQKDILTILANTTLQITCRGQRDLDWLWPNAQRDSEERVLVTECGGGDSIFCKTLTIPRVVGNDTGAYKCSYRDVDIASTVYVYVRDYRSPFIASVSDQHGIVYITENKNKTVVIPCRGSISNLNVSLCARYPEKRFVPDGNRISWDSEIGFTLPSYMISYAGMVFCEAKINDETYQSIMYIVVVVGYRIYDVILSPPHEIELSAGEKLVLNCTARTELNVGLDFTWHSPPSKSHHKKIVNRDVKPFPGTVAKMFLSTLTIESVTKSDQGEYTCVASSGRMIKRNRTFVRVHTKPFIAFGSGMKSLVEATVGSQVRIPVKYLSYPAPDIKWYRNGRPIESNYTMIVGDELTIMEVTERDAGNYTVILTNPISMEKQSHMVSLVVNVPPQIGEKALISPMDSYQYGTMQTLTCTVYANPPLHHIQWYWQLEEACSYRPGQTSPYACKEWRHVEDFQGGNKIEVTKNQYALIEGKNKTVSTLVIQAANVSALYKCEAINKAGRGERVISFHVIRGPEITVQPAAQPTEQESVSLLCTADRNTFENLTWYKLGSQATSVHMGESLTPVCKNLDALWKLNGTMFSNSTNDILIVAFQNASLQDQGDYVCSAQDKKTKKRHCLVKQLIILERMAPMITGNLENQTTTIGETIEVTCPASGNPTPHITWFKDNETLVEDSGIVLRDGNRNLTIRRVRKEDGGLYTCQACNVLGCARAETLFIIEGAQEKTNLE
Procedure: as §1

## B1
[1]
  IC50: 7.1 nM
[2]
  % inh: 99%
  IC50: 2.4 nM
[3]
  % inh: 87%
  IC50: 5.5 nM
[4]
  IC50: 2.8 nM

## B2
[5]
  IC50: 108 nM
[6]
  EC50: 0.224 nM
[7]
  % inhibition, VEGF HUVEC proliferation assay: 100%
  IC50, VEGF HUVEC proliferation assay: 0.34 nM
[8]
  % inhibition: 89%
  IC50: 0.225 nM
[9]
  IC50: 0.03 nM
[10]
  % inhibition, VEGF HUVEC Erk phosphorylation assay: 94%
  IC50, VEGF HUVEC Erk phosphorylation assay: 0.18 nM
[11]
  EC50: 0.54 nM
[12]
  IC50: 0.007 nM
[13]
  EC50: 0.464 nM
[14]
  % inhibition: 100%
  IC50: 0.164 nM
[15]
  % inh: 100%
  IC50: 0.017 nM
[16]
  % inhibition: 100%
  IC50: 0.008 nM
[17]
  Kd: 0.14 nM
  ka1: 1.2e+06 M⁻¹ s⁻¹
  ka2: 0.014 s⁻¹
  kd1: 0.0091 s⁻¹
  kd2: 0.00026 s⁻¹
[18]
  % inh: 87%
  IC50: 0.07 nM
[19]
  % inh: 100%
  IC50: 0.05 nM
[20]
  % inhibition: 98%
  IC50: 0.009 nM
[21]
  % inhibition: 100%
  IC50: 0.007 nM

## B3
[22]
  % inh: 78%
Recombinant human DLL4
  koff: 0.02 s⁻¹
[23]
  % inh: 85%

## B4
Human VEGFR2-Fc chimera
  binding result: binds

## B5
Mouse VEGFR2-huFc
  IC50: 0.05 nM
